In the RNAGym collection of RNA variant scans (doi:10.7554/elife.80360):

B1: HDV Ribozyme (parent)
chain: GGCCGGCAUGGUCCCAGCCUCCUCGCUGGCGCCGGCUGGGCAACAUUCCGAGGGGACCGUCCCCUCGGUAAUGGCGAAUGGGACCCA

Variants of: B1
Assay: self-cleavage, relative activity (ratio to wild type); higher = more cleavage; co-transcriptional

Row | Variant | self-cleavage
1 | G10C G52A | 0.746
2 | G55U G80A | 0.477
3 | G68A C75G | 0.0875
4 | C26G A70C | 0.957
5 | C19G A71C | 0.0665
6 | G38U A43C | 0.0811
7 | C13A U69G | 0.314
8 | G11A C26G | 0.99
9 | G67A G68C | 0.707
10 | G10A C18U | 0.138
11 | G54C C64G | 0.787
12 | A43U A87U | 0.425
13 | C13U G68U | 0.614
14 | C4G A77U | 0.0354
15 | G67U A83G | 0.412
16 | C3G C66G | 0.761
17 | G29A C57G | 0.267
18 | C33A G35A | 0.151
19 | C18A G38U | 0.0652
20 | C62G C66A | 0.323
21 | G31U U46G | 0.38
22 | U46G A51U | 0.45
23 | C19G C33A | 0.111
24 | G28A G68U | 0.0733

Row | Variant | self-cleavage
25 | G55C G67A | 1.08
26 | G53U G81A | 0.445
27 | U20G G80U | 0.053
28 | G59U U69C | 0.852
29 | C19U C22U | 0.058
30 | C19U C85A | 0.0378
31 | C48G G80C | 0.262
32 | U12A C32U | 0.0723
33 | C33U U79A | 0.684
34 | U20G G74C | 0.0489
35 | C19G A43G | 0.155
36 | G35U G53A | 0.42
37 | G35U G53C | 0.478
38 | A43C C84G | 0.237
39 | C30G U65C | 0
40 | C18A G52C | 0.0346
41 | G38A C49A | 0.172
42 | C22U C24U | 0.22
43 | C21G C75A | 0.0415
44 | U23A G81A | 0.305
45 | U27G C30G | 0.277
46 | G55U G59U | 1.02
47 | G11C A16U | 0.434
48 | C44G U79A | 0.388

Row | Variant | self-cleavage
49 | C7U G54U | 1
50 | C3U C24G | 0.0782
51 | G5A G34A | 0.0978
52 | G25U G80U | 0.115
53 | C48G C62A | 0.35
54 | G17C A83U | 0.256
55 | U46C C85A | 0.617
56 | C30G C66G | 0.0326
57 | G5A U46G | 0.161
58 | C15G U79G | 0.391
59 | G50C G73A | 0.407
60 | G17U G76A | 0.73
61 | G52C A87U | 1
62 | A51U G67A | 0.78
63 | G76C A83U | 0.464
64 | C3G U60C | 0.748
65 | C14A C84A | 0.458
66 | G53A C66A | 0.794
67 | C36A A87G | 0.125
68 | C66G G68U | 0.812
69 | G1C G29A | 0.0536
70 | C7A A87U | 0.505
71 | G17U A83C | 0.219
72 | A45U G68A | 0.712

Row | Variant | self-cleavage
73 | C15A A43G | 0.323
74 | C7A G11U | 0.095
75 | C30U C44U | 0.289
76 | C32G U37C | 0.264
77 | G10C C62U | 0.989
78 | C22G G55C | 0.109
79 | G2A U47G | 0.374
80 | C49G A83U | 0.35
81 | C24U G35A | 0.372
82 | G5C U65A | 0.246
83 | A45G C66G | 0.811
84 | C13A U46G | 0.0594
85 | C19U C86A | 0.194
86 | G28C C62A | 0.0346
87 | U27A G81A | 0.914
88 | C66A C85U | 0.985
89 | U37A C61A | 0.138
90 | A16U C86U | 0.852
91 | C19A C75U | 0.058
92 | U46G G59C | 0.831
93 | G5C C84U | 0.119
94 | G50C C84A | 0.743
95 | C13G C41U | 0
96 | G2A A8U | 0.0432

Row | Variant | self-cleavage
97 | G11C U27G | 0.356
98 | G11U C66G | 0.397
99 | A71G G74U | 0.658
100 | U9A C36U | 1.02
101 | G35C U79G | 0.214
102 | U20G G29U | 0
103 | C58A A78U | 0.424
104 | U65C A83C | 0.867
105 | G50A G76U | 1.01
106 | C30U G80C | 0.208
107 | G55C C57A | 1.06
108 | C22U G81A | 0.0911
109 | U23A G50U | 0.964
110 | A8C C24G | 0
111 | C19U C33A | 0.0665
112 | C19U C21A | 0.0573
113 | C32A C64A | 0.166
114 | G28C G31A | 0.0739
115 | G35A U79C | 0.282
116 | C41U G68C | 0.636
117 | A45C G74A | 0.354
118 | G2A G50A | 0.0386
119 | U69C C84A | 1.09
120 | G29A G52C | 0.197

Row | Variant | self-cleavage
121 | U27G G52U | 0.872
122 | G10U C58A | 0.873
123 | A16G C44A | 0.748
124 | C48A A56C | 1.18
125 | C36G U37C | 0.158
126 | C26U G38A | 0.0573
127 | A16G G50A | 1.4
128 | G10A A70G | 0.801
129 | C15G A83C | 0.249
130 | C18U U27G | 0.391
131 | U27G G53C | 1.01
132 | G6C C62A | 0.161
133 | C22A U72C | 0
134 | C49U A77C | 0.469
135 | G2U A56G | 0.0674
136 | G40C A51G | 0.288
137 | C48U U69A | 1.04
138 | C4G C32U | 0.086
139 | G1C U27C | 0
140 | U9A A56C | 1.16
141 | G1C U69C | 0.158
142 | C66U C85U | 0.888
143 | U46G G73C | 0.499
144 | C7G A71C | 0.222

Row | Variant | self-cleavage
145 | G17A C26U | 0.726
146 | G53A G55C | 0.912
147 | G67A C84G | 0.369
148 | C15G C24U | 0.196
149 | U47C U60C | 1.05
150 | G1C C44G | 0.0692
151 | G1C C44A | 0.353
152 | G1C C44U | 0.0615
153 | C21A U27A | 0.0504
154 | U60G G76U | 0.969
155 | C18G G59A | 0.128
156 | C64U A87U | 0.804
157 | C4G C75G | 0.122
158 | G29U A43G | 0.131
159 | A42U C49U | 0.502
160 | G29A G53A | 0.217
161 | C14G G28U | 0.107
162 | G34A G38A | 0.0583
163 | A42C G76U | 0.734
164 | C4G A42U | 0.0875
165 | C19U G82C | 0.0817
166 | C41G G53A | 0.485
167 | C4U C61G | 0.394
